By stoichiometry N is commonly meant a count of units in the complex or per binding partner.

This series deals with the molecule itself. The series is described as follows: SEC; Superdex 75 column, 20 mM Tris-Cl (pH 7.5), 150 mM NaCl; profile compared with protein size standards (44 and 17 kDa).

B1: Rv1738 (uncharacterized protein Rv1738; potential hibernation factor) (natural protein)
chain: MCGDQSDHVLQHWTVDISIDEHEGLTRAKARLRWREKELVGVGLARLNPADRNVPEIGDELSVARALSDLGKRMLKVSTHDIEAVTHQPARLLY
Turning to B1, the “stoichiometry N” value was 2.

The values are drawn from publication PMC7324553, “Activity-Based Protein Profiling Reveals That Cephalosporins Selectively Active on Non-replicating Mycobacterium tuberculosis Bind Multiple Protein Families and Spare Peptidoglycan Transpeptidases” (Frontiers in Microbiology, 2020).
